Among the data in patent publication US20250325640A1 are complement-dependent cytotoxicity (CCK8 cell survival, baby rabbit serum) (% of cells dead) values, retold here.

The experiment deals with CD20 on Daudi cells (UniProt P11836). As to the kind of experiment: cell-based or functional assay.

Regarding “Rituximab (anti-CD20 IgG, Mabthera) (antibody)”, the complement-dependent cytotoxicity (CCK8 cell survival, baby rabbit serum) (% of cells dead) came out at 70.
